Laboratory results taken from the supplement of paper PMC7125110.
± gives the standard error. This sample holds only a part of the variants without activity.

B1: glmS ribozyme (parent)
chain: AUAAAAGCGCCAGAACUACAGAAAUGUAGUUGACGAGGAGGAGGUUUAUCGAAUUUUCGGCGGAUGCCUCCAAA

Tests used:
Conditions in all cases: with glucosamine-6-phosphate
glucosamine-6-phosphate [1] = variants of: B1; test: self-cleavage kobs at 40 uM GlcN6P; higher = faster cleavage; RNA array
Summary of the method: (§1)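 Barcoded ribozyme variants were transcribed in situ on sequenced MiSeq chips by E. coli RNA polymerase. At 37 °C, a hybridised Cy3 probe tracked them while glucosamine-6-phosphate (40 μM to 10 mM) in HEPES/KCl/Mg(OAc)2 buffer flowed in and tiles were imaged over ~14 h. Per-tile medians of signals normalised to baseline and to non-cleaving reference variants were fit to one- or two-exponential decays, giving kobs. kcat and KM came from weighted Michaelis–Menten fits across concentrations.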

glucosamine-6-phosphate [2] = variants of: B1; test: self-cleavage kobs at 160 uM GlcN6P; higher = faster cleavage; RNA array
Summary of the method: as §1

glucosamine-6-phosphate [3] = variants of: B1; test: self-cleavage kobs at 640 uM GlcN6P; higher = faster cleavage; RNA array
Summary of the method: as §1

glucosamine-6-phosphate [4] = variants of: B1; test: self-cleavage kobs at 2500 uM GlcN6P; higher = faster cleavage; RNA array
Summary of the method: as §1

glucosamine-6-phosphate [5] = variants of: B1; test: self-cleavage kobs at 10000 uM GlcN6P; higher = faster cleavage; RNA array
Summary of the method: as §1

Variant: AUAAAUGCGCCAGAACUACAGAAAUGUAGUUGACGAGGAGGAGGUUUAUCGAAUUUUCGGCGUAUGCCUCCAAA [A6U G63U]
- self-cleavage kobs at 40 uM GlcN6P (glucosamine-6-phosphate [1]): < 1e-05 s⁻¹
- self-cleavage kobs at 160 uM GlcN6P (glucosamine-6-phosphate [2]): < 1e-05 s⁻¹
- self-cleavage kobs at 640 uM GlcN6P (glucosamine-6-phosphate [3]): < 1e-05 s⁻¹
- self-cleavage kobs at 2500 uM GlcN6P (glucosamine-6-phosphate [4]): < 1e-05 s⁻¹

Variant: AUAAAAGCGCCAGAACUACAGAAAUGUAGUUGACUAGGAGGAGGUGUAUCGAAUUUUCGGCGGAUGCCUCCAAA [G35U U46G]
- self-cleavage kobs at 40 uM GlcN6P (glucosamine-6-phosphate [1]): < 1e-05 s⁻¹
- self-cleavage kobs at 160 uM GlcN6P (glucosamine-6-phosphate [2]): < 1e-05 s⁻¹
- self-cleavage kobs at 640 uM GlcN6P (glucosamine-6-phosphate [3]): < 1e-05 s⁻¹
- self-cleavage kobs at 2500 uM GlcN6P (glucosamine-6-phosphate [4]): < 1e-05 s⁻¹
- self-cleavage kobs at 10000 uM GlcN6P (glucosamine-6-phosphate [5]): < 1e-05 s⁻¹

Variant: AUAAAAGCGCCAGAACUACAAAAAUGUAGUUGACGAGGAGGAGGUUUAUCGAAUUUUCGGCGGAUGCCUCCAAA [G21A]
- self-cleavage kobs at 40 uM GlcN6P (glucosamine-6-phosphate [1]): 0.00134 ± 0.00021 s⁻¹
- self-cleavage kobs at 160 uM GlcN6P (glucosamine-6-phosphate [2]): 0.00268 ± 0.00063 s⁻¹
- self-cleavage kobs at 640 uM GlcN6P (glucosamine-6-phosphate [3]): 0.00836 ± 0.0012 s⁻¹
- self-cleavage kobs at 2500 uM GlcN6P (glucosamine-6-phosphate [4]): 0.00839 ± 0.0024 s⁻¹
- self-cleavage kobs at 10000 uM GlcN6P (glucosamine-6-phosphate [5]): 0.0758 ± 0.037 s⁻¹

Variant: AUAAAAGCGCCAGAACUACAGAAAUGUAUUCGACGAGGAGGAGGUUUCUCGAAUUUUCGGCGGAUGCCUCCAAA [G29U U31C A48C]
- self-cleavage kobs at 40 uM GlcN6P (glucosamine-6-phosphate [1]): < 1e-05 s⁻¹
- self-cleavage kobs at 10000 uM GlcN6P (glucosamine-6-phosphate [5]): < 1e-05 s⁻¹

Variant: AUAAAAGCGACAGAACUACAGAAAUGUAGUUCACGAGGAGAAGGUUUAUCGAAUUUUCGGCGGAUGCCUCCAAA [C10A G32C G41A]
- self-cleavage kobs at 40 uM GlcN6P (glucosamine-6-phosphate [1]): < 1e-05 s⁻¹

Variant: AUAAAAGCGCCAGAGCUACAGAAAUGUAGUUGACGAGGAGGAGGUUUAUCGAAUUUUCGGCGGAUACCUCCAAA [A15G G66A]
- self-cleavage kobs at 40 uM GlcN6P (glucosamine-6-phosphate [1]): 0.000603 ± 8.4e-05 s⁻¹
- self-cleavage kobs at 160 uM GlcN6P (glucosamine-6-phosphate [2]): 0.00153 ± 0.00044 s⁻¹
- self-cleavage kobs at 640 uM GlcN6P (glucosamine-6-phosphate [3]): 0.00506 ± 0.0011 s⁻¹
- self-cleavage kobs at 2500 uM GlcN6P (glucosamine-6-phosphate [4]): 0.00542 ± 0.0014 s⁻¹
- self-cleavage kobs at 10000 uM GlcN6P (glucosamine-6-phosphate [5]): 0.0412 ± 0.011 s⁻¹

Variant: AUAAACGCGCCAGAACUACAGAAAUGUAUUUAACGAGGAGGAGGAUUAUCGAAUUUUCGACGGAUGCCUCCAAA [A6C G29U G32A U45A G60A]
- self-cleavage kobs at 40 uM GlcN6P (glucosamine-6-phosphate [1]): < 1e-05 s⁻¹
- self-cleavage kobs at 2500 uM GlcN6P (glucosamine-6-phosphate [4]): < 1e-05 s⁻¹

Variant: AUAAAAGCGCGAGAGCUACAGAAAUGUAGUUGACGAGGAGGAGGUUUAUCGACUUUUCGGCGGAUGCCUCCAAA [C11G A15G A53C]
- self-cleavage kobs at 40 uM GlcN6P (glucosamine-6-phosphate [1]): < 1e-05 s⁻¹
- self-cleavage kobs at 2500 uM GlcN6P (glucosamine-6-phosphate [4]): < 1e-05 s⁻¹

Variant: AUAAAAGCGCCAGAACUACAGAAAUGUAGUAGACGAGGAGGAGGUAUAUCGAAUUUUCGGUGGAUGCCUUCAAA [U31A U46A C61U C70U]
- self-cleavage kobs at 40 uM GlcN6P (glucosamine-6-phosphate [1]): < 1e-05 s⁻¹

Variant: AUAAAAGCGCCAGAACUACAGAAAUGUAGUUGACGAGCAGGAGGUUAAUCGAAUUUUCGGCGGAUGCCUUCAAA [G38C U47A C70U]
- self-cleavage kobs at 40 uM GlcN6P (glucosamine-6-phosphate [1]): < 1e-05 s⁻¹

Variant: AUAAAAGCGCCAGAACUACAGAAAUGUAGUUGACGGGGAGGAGGUUUUUCGAAUUUUCGGCGGAUGCCUCCAAA [A36G A48U]
- self-cleavage kobs at 40 uM GlcN6P (glucosamine-6-phosphate [1]): < 1e-05 s⁻¹
- self-cleavage kobs at 160 uM GlcN6P (glucosamine-6-phosphate [2]): < 1e-05 s⁻¹
- self-cleavage kobs at 640 uM GlcN6P (glucosamine-6-phosphate [3]): < 1e-05 s⁻¹
- self-cleavage kobs at 2500 uM GlcN6P (glucosamine-6-phosphate [4]): < 1e-05 s⁻¹
- self-cleavage kobs at 10000 uM GlcN6P (glucosamine-6-phosphate [5]): < 1e-05 s⁻¹

Variant: AUAAAAGCGUCAGUAGUACAGAAAUGUAGUUGACGAGGAGGAGGUUUAUCGAAUUUUCGGCGGAUGCCUCCAAA [C10U A14U C16G]
- self-cleavage kobs at 40 uM GlcN6P (glucosamine-6-phosphate [1]): < 1e-05 s⁻¹

Variant: AUAAAAGCGCCAGAACUACAGAAAUGUAGCUGACGAGGAAGAGGUUUAUCGGAUCUUCGGGGGAUGCCUCCAAA [U30C G40A A52G U55C C61G]
- self-cleavage kobs at 40 uM GlcN6P (glucosamine-6-phosphate [1]): < 1e-05 s⁻¹
- self-cleavage kobs at 10000 uM GlcN6P (glucosamine-6-phosphate [5]): < 1e-05 s⁻¹

Variant: AUAAAAGCGCCAGAACUACAGAAAUGUAGUUGACGAGGAGCAGUUUGAUCGAAUUUUCGGCGGAUGCCUCCAAA [G41C G44U U47G]
- self-cleavage kobs at 40 uM GlcN6P (glucosamine-6-phosphate [1]): < 1e-05 s⁻¹

Variant: AUAAAAGCGCCAGAACUACAGAAAUGUAUUUGACGAGGGGGAGGUUUAUCGAAUUUUCGGCGGUUGCCUCCAAA [G29U A39G A64U]
- self-cleavage kobs at 40 uM GlcN6P (glucosamine-6-phosphate [1]): < 1e-05 s⁻¹

Variant: AUAAAAGCGCCAGAACUACAGAAAUGUAGUCGACGAGGAGGAGGUUUAUCGAAUUUUCGGCGGAUCGCUCCAAA [U31C G66C C67G]
- self-cleavage kobs at 40 uM GlcN6P (glucosamine-6-phosphate [1]): < 1e-05 s⁻¹
